B1: SPAM1-GVCI: C-terminally truncated human PH20, precursor 465 aa (SEQ ID NO:35), mature 430 aa (SEQ ID NO:87) (protein, listed as Homo sapiens)
chain 1: MGVLKFKHIFFRSFVKSSGVSQIVFTFLLIPCCLTLNFRAPPVIPNVPFLWAWNAPSEFCLGKFDEPLDMSLFSFIGSPRINATGQGVTIFYVDRLGYYPYIDSITGVTVNGGIPQKISLQDHLDKAKKDITFYMPVDNLGMAVIDWEEWRPTWARNWKPKDVYKNRSIELVQQQNVQLSLTEATEKAKQEFEKAGKDFLVETIKLGKLLRPNHLWGYYLFPDCYNHHYKKPGYNGSCFNVEIKRNDDLSWLWNESTALYPSIYLNTQQSPVAATLYVRNRVREAIRVSKIPDAKSPLPVFAYTRIVFTDQVLKFLSQDELVYTFGETVALGASGIVIWGTLSIMRSMKSCLLLDNYMETILNPYIINVTLAAKMCSQVLCQEQGVCIRKNWNSSDYLHLNPDNFAIQLEKGGKFTVRGKPTLEDLEQFSEKFYCSCYSTLSCKEKADVKDTDAVDVCIADGVCI
chain 2: LNFRAPPVIPNVPFLWAWNAPSEFCLGKFDEPLDMSLFSFIGSPRINATGQGVTIFYVDRLGYYPYIDSITGVTVNGGIPQKISLQDHLDKAKKDITFYMPVDNLGMAVIDWEEWRPTWARNWKPKDVYKNRSIELVQQQNVQLSLTEATEKAKQEFEKAGKDFLVETIKLGKLLRPNHLWGYYLFPDCYNHHYKKPGYNGSCFNVEIKRNDDLSWLWNESTALYPSIYLNTQQSPVAATLYVRNRVREAIRVSKIPDAKSPLPVFAYTRIVFTDQVLKFLSQDELVYTFGETVALGASGIVIWGTLSIMRSMKSCLLLDNYMETILNPYIINVTLAAKMCSQVLCQEQGVCIRKNWNSSDYLHLNPDNFAIQLEKGGKFTVRGKPTLEDLEQFSEKFYCSCYSTLSCKEKADVKDTDAVDVCIADGVCI
modifications: HuPH20 precursor 1-465; Mature HuPH20 36-465
B2: SPAM1-DGVC: C-terminally truncated human PH20, precursor 464 aa (SEQ ID NO:36), mature 429 aa (SEQ ID NO:88) (protein, listed as Homo sapiens)
chain 1: MGVLKFKHIFFRSFVKSSGVSQIVFTFLLIPCCLTLNFRAPPVIPNVPFLWAWNAPSEFCLGKFDEPLDMSLFSFIGSPRINATGQGVTIFYVDRLGYYPYIDSITGVTVNGGIPQKISLQDHLDKAKKDITFYMPVDNLGMAVIDWEEWRPTWARNWKPKDVYKNRSIELVQQQNVQLSLTEATEKAKQEFEKAGKDFLVETIKLGKLLRPNHLWGYYLFPDCYNHHYKKPGYNGSCFNVEIKRNDDLSWLWNESTALYPSIYLNTQQSPVAATLYVRNRVREAIRVSKIPDAKSPLPVFAYTRIVFTDQVLKFLSQDELVYTFGETVALGASGIVIWGTLSIMRSMKSCLLLDNYMETILNPYIINVTLAAKMCSQVLCQEQGVCIRKNWNSSDYLHLNPDNFAIQLEKGGKFTVRGKPTLEDLEQFSEKFYCSCYSTLSCKEKADVKDTDAVDVCIADGVC
chain 2: LNFRAPPVIPNVPFLWAWNAPSEFCLGKFDEPLDMSLFSFIGSPRINATGQGVTIFYVDRLGYYPYIDSITGVTVNGGIPQKISLQDHLDKAKKDITFYMPVDNLGMAVIDWEEWRPTWARNWKPKDVYKNRSIELVQQQNVQLSLTEATEKAKQEFEKAGKDFLVETIKLGKLLRPNHLWGYYLFPDCYNHHYKKPGYNGSCFNVEIKRNDDLSWLWNESTALYPSIYLNTQQSPVAATLYVRNRVREAIRVSKIPDAKSPLPVFAYTRIVFTDQVLKFLSQDELVYTFGETVALGASGIVIWGTLSIMRSMKSCLLLDNYMETILNPYIINVTLAAKMCSQVLCQEQGVCIRKNWNSSDYLHLNPDNFAIQLEKGGKFTVRGKPTLEDLEQFSEKFYCSCYSTLSCKEKADVKDTDAVDVCIADGVC
modifications: HuPH20 precursor 1-464; Mature HuPH20 36-464
B3: SPAM1-IADG: C-terminally truncated human PH20, precursor 462 aa (SEQ ID NO:37), mature 427 aa (SEQ ID NO:89) (protein, listed as Homo sapiens)
chain 1: MGVLKFKHIFFRSFVKSSGVSQIVFTFLLIPCCLTLNFRAPPVIPNVPFLWAWNAPSEFCLGKFDEPLDMSLFSFIGSPRINATGQGVTIFYVDRLGYYPYIDSITGVTVNGGIPQKISLQDHLDKAKKDITFYMPVDNLGMAVIDWEEWRPTWARNWKPKDVYKNRSIELVQQQNVQLSLTEATEKAKQEFEKAGKDFLVETIKLGKLLRPNHLWGYYLFPDCYNHHYKKPGYNGSCFNVEIKRNDDLSWLWNESTALYPSIYLNTQQSPVAATLYVRNRVREAIRVSKIPDAKSPLPVFAYTRIVFTDQVLKFLSQDELVYTFGETVALGASGIVIWGTLSIMRSMKSCLLLDNYMETILNPYIINVTLAAKMCSQVLCQEQGVCIRKNWNSSDYLHLNPDNFAIQLEKGGKFTVRGKPTLEDLEQFSEKFYCSCYSTLSCKEKADVKDTDAVDVCIADG
chain 2: LNFRAPPVIPNVPFLWAWNAPSEFCLGKFDEPLDMSLFSFIGSPRINATGQGVTIFYVDRLGYYPYIDSITGVTVNGGIPQKISLQDHLDKAKKDITFYMPVDNLGMAVIDWEEWRPTWARNWKPKDVYKNRSIELVQQQNVQLSLTEATEKAKQEFEKAGKDFLVETIKLGKLLRPNHLWGYYLFPDCYNHHYKKPGYNGSCFNVEIKRNDDLSWLWNESTALYPSIYLNTQQSPVAATLYVRNRVREAIRVSKIPDAKSPLPVFAYTRIVFTDQVLKFLSQDELVYTFGETVALGASGIVIWGTLSIMRSMKSCLLLDNYMETILNPYIINVTLAAKMCSQVLCQEQGVCIRKNWNSSDYLHLNPDNFAIQLEKGGKFTVRGKPTLEDLEQFSEKFYCSCYSTLSCKEKADVKDTDAVDVCIADG
modifications: HuPH20 precursor 1-462; Mature HuPH20 36-462
B4: SPAM1-VCIA: C-terminally truncated human PH20, precursor 460 aa (SEQ ID NO:38), mature 425 aa (SEQ ID NO:90) (protein, listed as Homo sapiens)
chain 1: MGVLKFKHIFFRSFVKSSGVSQIVFTFLLIPCCLTLNFRAPPVIPNVPFLWAWNAPSEFCLGKFDEPLDMSLFSFIGSPRINATGQGVTIFYVDRLGYYPYIDSITGVTVNGGIPQKISLQDHLDKAKKDITFYMPVDNLGMAVIDWEEWRPTWARNWKPKDVYKNRSIELVQQQNVQLSLTEATEKAKQEFEKAGKDFLVETIKLGKLLRPNHLWGYYLFPDCYNHHYKKPGYNGSCFNVEIKRNDDLSWLWNESTALYPSIYLNTQQSPVAATLYVRNRVREAIRVSKIPDAKSPLPVFAYTRIVFTDQVLKFLSQDELVYTFGETVALGASGIVIWGTLSIMRSMKSCLLLDNYMETILNPYIINVTLAAKMCSQVLCQEQGVCIRKNWNSSDYLHLNPDNFAIQLEKGGKFTVRGKPTLEDLEQFSEKFYCSCYSTLSCKEKADVKDTDAVDVCIA
chain 2: LNFRAPPVIPNVPFLWAWNAPSEFCLGKFDEPLDMSLFSFIGSPRINATGQGVTIFYVDRLGYYPYIDSITGVTVNGGIPQKISLQDHLDKAKKDITFYMPVDNLGMAVIDWEEWRPTWARNWKPKDVYKNRSIELVQQQNVQLSLTEATEKAKQEFEKAGKDFLVETIKLGKLLRPNHLWGYYLFPDCYNHHYKKPGYNGSCFNVEIKRNDDLSWLWNESTALYPSIYLNTQQSPVAATLYVRNRVREAIRVSKIPDAKSPLPVFAYTRIVFTDQVLKFLSQDELVYTFGETVALGASGIVIWGTLSIMRSMKSCLLLDNYMETILNPYIINVTLAAKMCSQVLCQEQGVCIRKNWNSSDYLHLNPDNFAIQLEKGGKFTVRGKPTLEDLEQFSEKFYCSCYSTLSCKEKADVKDTDAVDVCIA
modifications: HuPH20 precursor 1-460; Mature HuPH20 36-460

How the values were obtained:
CHO-S cells = test: Western blot analysis of PH20 expression in media and cells after transient expression; assay type: cell-based, Chinese Hamster; conditions: media versus cells
Protocol: The mutant PH20-HZ24 plasmids generated in Example 1 were transiently […] into CHO—S cells (derived from Chinese Hamster Ovary CHO K1 cells) using GeneJuice® (Novagen) according to the manufacturer's instructions. In short, the CHO—S cells were grown in CD CHO medium supplemented with L-glutamine. Prior to transfection, the CHO—S cells were plated in 6-well plates, with approximately 5×10^5 cells per well, and grown overnight at 37° C. with 5% CO2. The medium was then removed and the CHO—S cells were washed 2 times with 1 mL serum-free medium. GeneJuice® was mixed with serum-free media followed by the addition of 2 μg mutant-HZ24 DNA. After incubating at room temperature for 5-15 minutes, the GeneJuice®/DNA mixture was added dropwise to an individual well containing the washed CHO—S cells. After 4 hours, the medium was replaced with 1 mL CD-CHO medium supplemented with L-glutamine and the cells were incubated for 72 hours at 37° C. with 5% CO2. Following expression, the media and cells were harvested separately.
The mutant PH20-HZ24 plasmids generated in Example 1 were transiently […] into CHO—S cells using GeneJuice® (Novagen) according to the manufacturer's instructions. […]
In this example, following transient expression, as described in Example 2 above, the media and cells were harvested separately and analyzed for PH20 expression and solublility by Western blot analysis. Solubility of the C-terminus truncation mutants was determined by examining whether the expressed protein was present in the growth media or in the cells. […] Cells expressing these mutants were treated with phosphoinositol-phospholipase C (PI-PLC), which cleaves the GPI-anchor allowing the release of soluble protein into the media, and the presence of PH20 in the resulting media and cells was determined by Western blot analysis.
Non-reduced samples were run on a 4-20% Tris-Glycine gel and transferred to PVDF membrane using iBlot (Invitrogen). For the Western blot, rabbit anti-PH20 IgG (0.5 μg/mL) was used as the primary antibody and HRP-conjugated goat anti-rabbit IgG (0.1 ng/mL, Cat#DC03L, EMD) was used as the secondary antibody. Evidence of expression is determined by a band at approximately 66 kDa, corresponding to recombinant human PH20 hyaluronidase.

[1] = Microtiter hyaluronidase activity assay with biotinylated-hyaluronic acid; assay type: biochemical; conditions: Table 6, 72 hour post transfection supernatant
Protocol: In Example 4, the hyaluronidase activity of truncated human PH20 hyaluronidase is determined using biotinylated hyaluronic acid. The free carboxyl groups on the glucuronic acid residues of hyaluronic acid are biotinylated, and the biotinylated hyaluronic acid substrate is covalently coupled to a microtiter plate. Following incubation with hyaluronidase, the residual biotinylated hyaluronic acid substrate is detected using an avidin-peroxidase reaction, and compared to that obtained following reaction with hyaluronidase standards of known activity. […] The sensitivity permits rapid measurement of hyaluronidase activity from cultured cells and biological samples with an inter-assay variation of less than 10%.
In this example, the human PH20 hyaluronidase carboxy-terminus deletion mutants were tested for their PH20 hyaluronidase activity using a microtiter assay with biotinylated-hyaluronic acid (biotinylated-HA or bHA). The human PH20 hyaluronidase carboxy-terminus deletion mutants were tested for hyaluronidase activity at both pH 7.4 and pH 5.5.
In short, a 4×BH 96-well plate was coated with biotinylated-HA (1.1 MDa). The 72 hour post transfection supernatant from cells transfected with human PH20 hyaluronidase carboxy-terminus deletion mutants was diluted in buffer at either pH 7.4 or pH 5.5 and added to individual wells of the plate and allowed to incubate at 37° C. for 90 minutes. The reaction was terminated by addition of 4M guanidine HCl. The wells were washed 4× with Phosphate Buffered Saline with Tween20 (PBST) to remove any digested biotinylated-HA followed by addition of streptavidin-HRP for 1 hour at room temperature. The wells were washed 4× with PBST and the plate was developed with TMB. The plate was read at 450 nm using an ELISA plate reader. Hyaluronidase activity (in Units/mL) was determined by interpolating the measured absorbance at 450 nm with a hyaluronidase reference standard curve. Full length mature human PH20 hyaluronidase and untransfected CHO cells were used as positive and negative controls.

Row | Molecule | Expressed in Media (CHO-S cells) | pH 5.5 Activity [1] | pH 7.4 Activity [1]
1 | B1 | YES | 0.468 Units/ml | 0.441 Units/ml
2 | B2 | YES | 0.045 Units/ml | 0 Units/ml
3 | B3 | YES | 0.00225 Units/ml | 0 Units/ml
4 | B4 | YES | 0.0135 Units/ml | 0 Units/ml
